The values below come from the supplement of paper PMC10567573.

To fix the notation:
B1: TPD52L1 (parent)
chain: ISKKFGDMSYSIRHSISMPAMRNS
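Further: lentivirally expressed fusions sorted by FACS into six bins by GFP to DsRed ratio, PSI derived from sequencing read proportions per bin multiplied by bin number.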

The series covers variants of B1. Briefly: protein stability index of a GFP-peptide fusion (GPS, HEK-293T) (PSI 1-6); higher = more stable. The settings on record: c terminus: a fixed tail appended.
As for ISKKFGDMSYSIRHSISSPAMRNS [M18S], the protein stability index was determined as 2.05.

For ISKKFGDMSYSIRHSISVPAMRNS [M18V], the protein stability index amounted to 1.83.

For ISKKFGDMSYSIRHSISAPAMRNS [M18A], the protein stability index worked out at 2.64.

Take ISKKFGDMSYSIRHSISTPAMRNS [M18T]: the protein stability index is 2.58.

As to ISKKFGDMSYSIRHSISKPAMRNS [M18K], the protein stability index is 2.31.

On to ISKKFGDMSYSIRHSISEPAMRNS [M18E], for which the protein stability index was determined as 2.74.

Consider ISKKFGDMSYSIRHSISMPACRNS [M21C], for which the protein stability index was found to be 3.31.

Regarding ISKKFGDMSYSIRHSISMPAPRNS [M21P], the protein stability index is 2.54.

As to ISKKFGDMSYSIRHSISMPASRNS [M21S], the protein stability index came out at 2.46.

Take ISKKFGDMSYSIRHSISMPAKRNS [M21K]: the protein stability index turned out to be 3.21.

As to ISKKFGDMSYSIRHSISMPADRNS [M21D], the protein stability index worked out at 2.75.

Regarding ISKKFGDMSYSIRHSISMPAQRNS [M21Q], the protein stability index came to 2.33.

With ISKKFGDMSYSIRHSISMPAERNS [M21E], the protein stability index was found to be 3.36.

As for ISKKFGDMSYSIRHSISMPAARNS [M21A], the protein stability index worked out at 2.82.

With ISKKFGDMSYSHRHSISMPAMRNS [I12H], the protein stability index was 2.6.

Turning to ISKKFGDMSYSRRHSISMPAMRNS [I12R], the protein stability index came out at 2.86.

Take ISKKFGDMSYSARHSISMPAMRNS [I12A]: the protein stability index was 2.55.

Regarding ISKKFGDMSYSFRHSISMPAMRNS [I12F], the protein stability index worked out at 2.63.

Turning to ISKKFGDMSYSWRHSISMPAMRNS [I12W], the protein stability index worked out at 1.57.

As for ISKKFGDMSYSKRHSISMPAMRNS [I12K], the protein stability index came out at 2.56.

For ISKKFGDMSYSVRHSISMPAMRNS [I12V], the protein stability index turned out to be 2.28.

ISKKFGDMSYSERHSISMPAMRNS [I12E]: the protein stability index was 3.36.

On to ISKQFGDMSYSIRHSISMPAMRNS [K4Q], for which the protein stability index is 2.09.

Take ISKHFGDMSYSIRHSISMPAMRNS [K4H]: the protein stability index worked out at 2.57.

On to ISKWFGDMSYSIRHSISMPAMRNS [K4W], for which the protein stability index was 1.76.

For ISKNFGDMSYSIRHSISMPAMRNS [K4N], the protein stability index worked out at 2.13.

For ISKKFGDMSYSIRHSISMPAMWNS [R22W], the protein stability index was determined as 1.65.

Regarding ISKKFGDMSYSIRHSISMPAMDNS [R22D], the protein stability index was determined as 2.52.

ISKKFGDMSYSIRHSISMPAMINS [R22I]: the protein stability index was 1.85.

On to ISKKFGDMSYSIRHSISMPAMYNS [R22Y], for which the protein stability index came out at 1.88.

ISKKFGDMSYSIRHSISMPAMTNS [R22T]: the protein stability index turned out to be 2.6.

On to ISKKFGDMSYSIRHSISMPAMHNS [R22H], for which the protein stability index came out at 2.56.

As for ISKKFGDMSYSIRHSISMPAMGNS [R22G], the protein stability index is 2.66.

As to ISKKFGDMSYSIRHSISMPAMSNS [R22S], the protein stability index stood at 2.13.

For the variant ISKKFGDMSYSIRHSISMPAMFNS [R22F], the protein stability index came to 2.22.

Turning to ISKKFGDMSYVIRHSISMPAMRNS [S11V], the protein stability index turned out to be 2.49.

Consider ISKKFGDMSYLIRHSISMPAMRNS [S11L], for which the protein stability index stood at 2.75.

As to ISKKFGDMSYAIRHSISMPAMRNS [S11A], the protein stability index was found to be 2.51.

For the variant ISKKFGDMSYQIRHSISMPAMRNS [S11Q], the protein stability index turned out to be 2.22.

For ISKKFGDMSYEIRHSISMPAMRNS [S11E], the protein stability index came to 1.97.

In the case of ISKKFGDMSYGIRHSISMPAMRNS [S11G], the protein stability index came out at 2.52.

For the variant ISKKFGDMSYTIRHSISMPAMRNS [S11T], the protein stability index stood at 2.38.

For the variant ISKKFGDMSYIIRHSISMPAMRNS [S11I], the protein stability index was 2.03.

Take ISKKFGDMSYSIRHSIPMPAMRNS [S17P]: the protein stability index came out at 2.28.

Turning to ISKKFGDMSYSIRHSIRMPAMRNS [S17R], the protein stability index is 2.17.

Turning to ISKKFGDMSYSIRHSIFMPAMRNS [S17F], the protein stability index stood at 2.13.

On to ISKKFGDMSYSIRHSIMMPAMRNS [S17M], for which the protein stability index came to 2.17.

Take ISKKFGDMSYSIRHSIYMPAMRNS [S17Y]: the protein stability index turned out to be 1.98.

With ISKKFGDMSYSIRHSIKMPAMRNS [S17K], the protein stability index amounted to 2.13.

As to ISKKFGDMLYSIRHSISMPAMRNS [S9L], the protein stability index amounted to 1.42.

Regarding ISKKFGDMMYSIRHSISMPAMRNS [S9M], the protein stability index was 1.51.

As to ISKKFGDMDYSIRHSISMPAMRNS [S9D], the protein stability index turned out to be 2.36.

Consider ISKKFGDMFYSIRHSISMPAMRNS [S9F], for which the protein stability index was determined as 2.

Take ISKKFGDMHYSIRHSISMPAMRNS [S9H]: the protein stability index worked out at 2.38.

With ISKKFGDMEYSIRHSISMPAMRNS [S9E], the protein stability index worked out at 2.34.

Turning to ISKKFGDHSYSIRHSISMPAMRNS [M8H], the protein stability index was found to be 2.33.

Take ISKKFGDYSYSIRHSISMPAMRNS [M8Y]: the protein stability index stood at 1.54.

Take ISKKFGDNSYSIRHSISMPAMRNS [M8N]: the protein stability index was 2.88.

As to ISKKFGDQSYSIRHSISMPAMRNS [M8Q], the protein stability index came to 2.85.

Regarding ISKKFGDDSYSIRHSISMPAMRNS [M8D], the protein stability index was 2.78.

On to ISKKFGDISYSIRHSISMPAMRNS [M8I], for which the protein stability index was found to be 2.13.

ISKKFGDCSYSIRHSISMPAMRNS [M8C]: the protein stability index turned out to be 1.96.

With ISKKFGDSSYSIRHSISMPAMRNS [M8S], the protein stability index worked out at 2.4.

On to ISKKFGDMSYSIRHMISMPAMRNS [S15M], for which the protein stability index is 1.91.

As for ISKKFGDMSYSIRHYISMPAMRNS [S15Y], the protein stability index stood at 1.51.

With ISKKFGDMSYSIRHEISMPAMRNS [S15E], the protein stability index came to 3.28.

In the case of ISKKFGDMSYSIRHDISMPAMRNS [S15D], the protein stability index is 1.92.

ISKKFGDMSYSIRHNISMPAMRNS [S15N]: the protein stability index is 2.37.

For ISKKFGDMSYSIRHQISMPAMRNS [S15Q], the protein stability index came out at 2.5.

In the case of ISKKFGDMSYSIRHAISMPAMRNS [S15A], the protein stability index was determined as 2.23.

With ISKKFGDMSYSIRHWISMPAMRNS [S15W], the protein stability index came out at 2.22.

Turning to ISKKFGDMSYSIRHVISMPAMRNS [S15V], the protein stability index came out at 1.32.

ISKKFGDMSYSIRHSISMPAMRNV [S24V]: the protein stability index amounted to 2.24.

With ISKKFGDMSYSIRHSISMPAMRNF [S24F], the protein stability index is 1.57.

On to ISKKFGDMSYSIRHSISMPAMRNL [S24L], for which the protein stability index is 1.96.

For the variant ISKKFGDMSYSIRHSISMPAMRNG [S24G], the protein stability index is 2.13.

ISKKFGDMSYSIRHSISMPAMRNK [S24K]: the protein stability index is 2.21.

Regarding ISKKFGDMSYSIRHSISMPAMRNA [S24A], the protein stability index is 2.63.

With ISKKFGDMSYSIRHSISMPAMRNN [S24N], the protein stability index came to 2.33.

Turning to ISKKFGDMSYSIRHSISMPKMRNS [A20K], the protein stability index stood at 2.35.

For ISKKFGDMSYSIRHSISMPIMRNS [A20I], the protein stability index worked out at 2.67.

Turning to ISKKFGDMSYSIRHSISMPHMRNS [A20H], the protein stability index is 2.28.

Take ISKKFGDMSYSIRHSISMPFMRNS [A20F]: the protein stability index was 2.2.

Regarding ISKKFGDMSYSIRHSISMPSMRNS [A20S], the protein stability index came to 2.04.

Take ISKKFGDMSYSIRHSISMPRMRNS [A20R]: the protein stability index came out at 2.24.

For ISKKFGDMSYSIRHSISMPVMRNS [A20V], the protein stability index came to 2.95.

Consider ISKKFGDMSYSIRHSISMPMMRNS [A20M], for which the protein stability index was determined as 1.95.

As to ISKKMGDMSYSIRHSISMPAMRNS [F5M], the protein stability index stood at 2.29.

On to ISKKCGDMSYSIRHSISMPAMRNS [F5C], for which the protein stability index worked out at 2.26.

Turning to ISKKLGDMSYSIRHSISMPAMRNS [F5L], the protein stability index was determined as 1.78.

Consider ISKKNGDMSYSIRHSISMPAMRNS [F5N], for which the protein stability index is 2.48.

In the case of ISKKEGDMSYSIRHSISMPAMRNS [F5E], the protein stability index was 3.06.

For the variant ISKKHGDMSYSIRHSISMPAMRNS [F5H], the protein stability index is 2.72.

In the case of ISKKWGDMSYSIRHSISMPAMRNS [F5W], the protein stability index came to 2.5.
